# Assay results published in the supplement of paper PMC9170038.
# Tested on: MS2 coat protein
# Test: apparent KD of MS2 coat protein; designed switch direction (-1 OFF switch, 1 ON switch): -1; higher = weaker reporter binding
# Method in brief: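 Designed RNA switches with common flanks were made on Illumina chips by stalled E. coli RNA polymerase. Titration with SNAP-549-labelled MS2 coat protein doubled from 0.7 or 1.5 nM up to 3 µM. Apparent KD is each design's median over clusters after curve-fitting normalised fluorescence.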
# [1] = input ligand: microRNA oligo, concentration not stated
# [2] = Eterna round: R95, input ligand: FMN 200 uM
# [3] = Eterna round: R95, input ligand: microRNA oligo, concentration not stated
# [4] = Eterna round: R95, input ligand: none
Sequence,apparent KD of MS2 coat protein (input ligand: FMN 200 uM) [nM],apparent KD of MS2 coat protein [1] [nM],apparent KD of MS2 coat protein (input ligand: none) [nM],apparent KD of MS2 coat protein [2] [nM],apparent KD of MS2 coat protein [3] [nM],apparent KD of MS2 coat protein [4] [nM]
"ACAUGAGGAUCACCCAUGUCCGGCUGGUCUGUUUCGGUUGUCGAGGAUAUAGUUCGGUGUUCGCGCUAGAAGGUGGGAGCUGGC [Aenatbe mod 57] (Eterna round: R96, puzzle: Exclusion NG 3)",143,108,175,–,–,–
"ACAUGAGGAUCACCCAUGUCCGGCUGGUCUGUUUCGGUUGUCGAGGAUAUAGUUCGGUGUUCGCGCUAGAAGGUGGGAGCUGGG [Aenatbe mod 56] (Eterna round: R96, puzzle: Exclusion NG 3)",161,116,147,–,–,–
"ACAUGAGGAUCACCCAUGUCCGGUUGGUCUGUUCCGGCUGUCGAGGAUAUAGUCCGGUGUUCGCGCUAGAAGGUGAGGGCUGGA [Aenatbe mod 46] (Eterna round: R96, puzzle: Exclusion NG 3)",775,259,500,–,–,–
"ACAUGAGGAUCACCCAUGUCCGUCUGGUCUGUCUCGGCUGUCGAGGAUAUAGCUCGGUAUCCGCGCUAGAAGGCGGGAGUCGGU [Aenatbe mod 93] (Eterna round: R96, puzzle: Exclusion NG 3)",73.6,66.7,88.5,–,–,–
"ACAUGAGGAUCACCCAUGUCUGGCUGGUCUGCUCCGGUUGUUGAGGAUAUAGUUCGGUGUUCGCGCUAGAAGGUGAGGGCUGGC [Aenatbe mod 38] (Eterna round: R96, puzzle: Exclusion NG 3)",34.4,32.1,39,–,–,–
"ACAUGAGGAUCACCCAUGUGAAAACAAUGGCUGACUUUGAGACAGGAUAUAGGUGCAUAUCAAACCUAGAAGGGUCAUUACUGG [Deportation 93 - Jieux - Exclusion NG 3] (Eterna round: R96, puzzle: Exclusion NG 3)",43.5,31.6,38.2,–,–,–
"ACAUGAGGAUCACCCAUGUGAAACCAAUGGCUGACUUUGAGCUAGGAUAUUCGUGCAUAUCAAACGAAGAAGGAGCAUUACUGG [Deportation 97 - Jieux - Exclusion NG 3] (Eterna round: R96, puzzle: Exclusion NG 3)",36.9,31.5,34.8,–,–,–
"ACAUGAGGAUCACCCAUGUGACCACAAUGGCUGAUGUAACAACAGGAUAUUCGUGAAUAUCUAACGAAGAAGGGUUAUGACUGG [Deportation 63 - Jieux - Exclusion NG 3] (Eterna round: R96, puzzle: Exclusion NG 3)",–,51.4,–,–,–,–
"ACAUGAGGAUCACCCAUGUGCACGUAAUGGCUCAUGUAGAGUCAGGAUAUGCGUGGCGAACUCGCGCAGAAGGGACAAGACUGG [Deportation 20 - Jieux - Exclusion NG 3] (Eterna round: R96, puzzle: Exclusion NG 3)",23.5,25.6,34.6,–,–,–
"ACAUGAGGAUCACCCAUGUUUGGCUGGUUUUCUCCGGCUGUCGAGGAUAUAGUCCGGUAUCCGCGCUAGAAGGUGAGGGCUGGC [Aenatbe mod 5] (Eterna round: R96, puzzle: Exclusion NG 3)",14.5,13.1,20.4,–,–,–
"ACAUGUCAUUGAGGAUAUCGCACACAUGAGGAUCACCCAUGUAAACGGAUGCUCUUACGUGGGUUCGAGAAGGCGAUGUACAUU [Ex NG2 #95] (Eterna round: R96, puzzle: Exclusion NG 2)",458,112,142,–,–,–
"ACAUGUCAUUGAGGAUAUCGCACACAUGAGGAUCACCCAUGUAAACGGAUGCUCUUUCGUGGUUUCGAGAAGGCGAUGUACAUU [Ex NG2 #97] (Eterna round: R96, puzzle: Exclusion NG 2)",438,335,182,–,–,–
"ACAUGUUGCGCAGGAUAUGGGACACAUGAGGAUCACCCAUGUGGCUACAUGUCAUACCAAGCGUCUCAGAAGGGUGUUAACAUG [Ex NG2 #36] (Eterna round: R96, puzzle: Exclusion NG 2)",20.1,14,17.7,–,–,–
ACCACCUUAGUCAGGAUAUAGCUUCUAGCAAGAUACUAGAAGGGACAUGAGGAUCACCCAUGUAAAGGUGCUAA [Ramais] (puzzle: Brourd's mod of Exclusion 4),–,–,–,25.3,29,27.2
"ACCAGCAUACGGAGAUCCAACAUGAGGAUCACCCAUGUCUGGAAAGCUUUUUGCUUGUCUUAUCCUCCUCUGUGUGC [Design #2] (Eterna round: R97, puzzle: Sensor, turn-off variant 1)",17.5,–,16.6,–,–,–
"ACCAGUAUAUGGAGAUUUUACAUGAGGAUCACCCAUGUUGGGACAGCUUUUUGCUUGUCUUAUCCUACUUUGUGUGU [Design #3] (Eterna round: R97, puzzle: Sensor, turn-off variant 1)",32.2,–,36,–,–,–

Sequence,apparent KD of MS2 coat protein (input ligand: FMN 200 uM) [nM],apparent KD of MS2 coat protein [1] [nM],apparent KD of MS2 coat protein (input ligand: none) [nM],apparent KD of MS2 coat protein [2] [nM],apparent KD of MS2 coat protein [3] [nM],apparent KD of MS2 coat protein [4] [nM]
"ACCAGUGGAGGAUAUACAUGAGGAUCACCCAUGUGUUGAAUAGGUGGAGAACCACAAAGUAGAAGGCCACUGGA [jl-ex3-4.79 jandersonlee automod] (Eterna round: R97, puzzle: Exclusion 3)",1000,–,76.6,–,–,–
"ACCAUUACCACACCCUCUAUACAUGAGGAUCACCCAUGUUCUGAGGAUAUCAUCGCUCGCCGCGUUGAGAAGGCAGAGCAUUAA [Tiisri] (Eterna round: R96, puzzle: Exclusion NG 3)",50.8,9.21,15.1,–,–,–
"ACCAUUUUACGAUAUGUGCACAUGAGGAUCACCCAUGUUCCGAUAAACAUUUGAAGUACAGCAGGCUGCUCGAUCUG [Eternabot (L2) Solution 45] (Eterna round: R97, puzzle: Sensor, turn-off variant 1)",94.2,–,87.4,–,–,–
"ACCUCACAUGAGGAUCACCCAUGUAAGGAUAUCUUCGCUUUGACGUUGCUCUAUGCGAAGAGAAGGUACACGGA [Xeteed] (Eterna round: R97, puzzle: Exclusion 1)",84.8,–,20.6,–,–,–
"ACCUCACAUGAGGAUCACCCAUGUCAGGAUAUCUAAUAUAGUAGCGUUCCCGACGCUAAGAGAAGGGACAUUAA [EX1 #32] (Eterna round: R97, puzzle: Exclusion 1)",23,–,13.9,–,–,–
ACCUCACAUGAGGAUCACCCAUGUUAGGAUAUCUCGGCGCCCUGCAGGCAGUGGCACCAGAGAAGGAACGUGCA [Xeindiisti] (puzzle: Exclusion 1),–,–,–,–,20.4,–
ACGCCUCCUGUUAGGAUAUGCAUCGGGCUUCCGCAGCAGAAGGAACAUGAGGAUCACCCAUGUCAAAUAAAAUC [Raleed] (puzzle: Brourd's mod of Exclusion 4),–,–,–,–,17,–
"ACGCGAUAUGGCGUAACGCGACAUGAGGAUCACCCAUGUAACGAGGAUAUGAUCUCGAGAGAGGGUCAGAAGGCGUUACAAUAU [Eternabot solution 23] (Eterna round: R96, puzzle: Exclusion NG 3)",130,70.7,74.3,–,–,–
"ACGCGUGGCUAGGAUAUGCAGAAAUCUAGCCAGGCAGAAGGAGCCACAUGAGGAUCACCCAUGUGGUGAUCCUC [eternacac ex6r4 sub1] (Eterna round: R97, puzzle: Exclusion 6)",10.8,–,9.98,–,–,–
"ACGGUGGUCCGAGAACAUGAGGAUCACCCAUGUGACAAAACCAAGGAUAUAGACGGACCGCCCGACUAGAAGGUGGAAAGAAAA [Aronlema] (Eterna round: R96, puzzle: Exclusion NG 3)",90.2,41.1,77.9,–,–,–
ACGUAUCAUGUCAGGAUAUAGCUAGCUACGGCUAGCUAGAAGGGACAUGAGGAUCACCCAUGUCAAAGAUACGU (puzzle: Brourd's mod of Exclusion 4),–,–,–,–,13.2,–
"ACGUGAUACCUGUCGGUGGACAUGAGGAUCACCCAUGUAAGCUUUUUGCUCGUCUUAUAACCCGGUGACAGACCUUC [Racequbebe] (puzzle: Sensor v3, turn-off variant 1)",–,–,–,97.7,544,142
"ACGUGAUAUCUGUCGGUGGACAUGAGGAUCACCCAUGUAAGCUUUUUGCUCGUCUUACAACCCGGUGACAGACCUUC [Essodiis] (puzzle: Sensor v3, turn-off variant 1)",–,–,–,138,275,166
"ACGUGAUAUCUGUCGGUGGACAUGAGGAUCACCCAUGUAAGCUUUUUGCUUGUCUUAUAACCCGGUGACAGACCUUC [Inxeer] (Eterna round: R96, puzzle: Sensor v3, turn-off variant 1)",35.5,349,35.1,–,–,–
"ACGUGAUAUCUGUCGGUGGACAUGAGGAUCACCCAUGUAAGCUUUUUGCUUGUCUUAUAACCCGGUGACAGACCUUC [Inxeer] (puzzle: Sensor v3, turn-off variant 1)",–,–,–,23.1,540,26.5
"ACGUGAUAUCUGUCGGUGGACAUGAGGAUCACCCAUGUGAGCUUUUUGCUCGUCUUACAACCCGGUGACAGACCUUC [Bebitier] (puzzle: Sensor v3, turn-off variant 1)",–,–,–,23.6,262,21.4
